The results in this text go back to USRE47972.

The assay has as its target trypsin. The experiment in a line: cell-based or functional assay.

“Highly purified human IαIp (mixture of inter-alpha inhibitor IαI and pre-alpha inhibitor PαI) purified from cryo-poor plasma (from UniProt P02760 206-352; P19827 35-672; P19823 55-702; Q06033 35-651)”: the Specific Inh. Activity [TIU/mg IαIp] is 1410 TIU/mg IαIp.
“Human IαIp (mixture of inter-alpha inhibitor IαI and pre-alpha inhibitor PαI) purified from cryoprecipitate, a side-fraction of fVIII production (from UniProt P02760 206-352; P19827 35-672; P19823 55-702; Q06033 35-651)” gave a Specific Inh. Activity [TIU/mg IαIp] of 1410 TIU/mg IαIp.
